Assay results taken from patent US20100260668A1 (published 2010).
Values joined by “and” are separate entries in the source; they are usually repeats but may differ in a detail not shown here. Equal values may be shown once.

Legend:
MSP Receptor ECD-His tag = molecular target: T1, MSP Receptor ECD-His tag (UniProt Q04912 25-957, limits assumed); experiment: Biacore SPR
T1 construct: extracellular domain; Bought reagent; also called RON; not shown: His tag

[1] = molecular target: T2, DLL4 ECD/His tag (R&D 1506-D4-050) (UniProt Q9NR61 27-529); experiment: direct bind ELISA, DLL4 on plate; DLL4 VD C-term.; HC Short, LC Short
T2 construct: extracellular domain; Bought antigen coated on the ELISA plate; not shown: His tag

[2] = molecular target: recombinant human VEGF165 (human, UniProt P15692-4 27-191); experiment: cell-based or functional assay
recombinant human VEGF165, sequence (P15692 other isoform, or with tags, fused parts or gaps limits assumed): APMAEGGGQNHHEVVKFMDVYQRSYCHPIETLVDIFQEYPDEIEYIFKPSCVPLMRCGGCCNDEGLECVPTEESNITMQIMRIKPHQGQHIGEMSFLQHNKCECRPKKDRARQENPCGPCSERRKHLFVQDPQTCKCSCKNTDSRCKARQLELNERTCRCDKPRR

[3] = molecular target: human DLL4 extracellular domain (human, UniProt Q9NR61 27-529); experiment: cell-based or functional assay
DLL ECD His tag = molecular target: T3, DLL ECD His tag (UniProt Q9NR61 27-529, limits assumed); experiment: Biacore SPR
T3 construct: extracellular domain; Bought reagent; also called DLL4; DLL-4; not shown: His tag

[4] = molecular target: T4, ErbB3 (ErbB3/FC Chimera-His tag) (UniProt P21860 20-643, limits assumed); experiment: SPR (Biacore); parent antibody
T4 construct: extracellular domain
Description: (§1) The BIACORE assay (Biacore, Inc, Piscataway, N.J.) determines the affinity of antibodies or DVD-Ig with kinetic measurements of on-rate and off-rate constants. Binding of antibodies or DVD-Ig to a target antigen (for example, a purified recombinant target antigen) is determined by surface plasmon resonance-based measurements with a Biacore® 1000 or 3000 instrument (Biacore® AB, Uppsala, Sweden) using running HBS-EP (10 mM HEPES [pH 7.4], 150 mM NaCl, 3 mM EDTA, and 0.005% surfactant P20) at 25° C. […] For example, approximately 5000 RU of goat anti-mouse IgG, (Fcγ), fragment specific polyclonal antibody (Pierce Biotechnology Inc, Rockford, Ill.) diluted in 10 mM sodium acetate (pH 4.5) is directly immobilized across a CM5 research grade biosensor chip using a standard amine coupling kit according to manufacturer's instructions and procedures at 25 μg/ml. Unreacted moieties on the biosensor surface are blocked with ethanolamine. Modified carboxymethyl dextran surface in flowcell 2 and 4 is used as a reaction surface. Unmodified carboxymethyl dextran without goat anti-mouse IgG in flow cell 1 and 3 is used as the reference surface. For kinetic analysis, rate equations derived from the 1:1 Langmuir binding model are fitted simultaneously to association and dissociation phases of all eight injections (using global fit analysis) with the use of Biaevaluation 4.0.1 software. Purified antibodies or DVD-Ig are diluted in HEPES-buffered saline for capture across goat anti-mouse IgG specific reaction surfaces. Antibodies or DVD-Ig to be captured as a ligand (25 μg/ml) are injected over reaction matrices at a flow rate of 5 μl/min. The association and dissociation rate constants, kₒₙ (M⁻¹s⁻¹) and koff (s⁻¹) are determined under a continuous flow rate of 25 μl/min. Rate constants are derived by making kinetic binding measurements at different antigen concentrations ranging from 10-200 nM. The equilibrium dissociation constant (M) of the reaction between antibodies or DVD-Igs and the target antigen is then calculated from the kinetic rate constants by the following formula: KD=koff/kₒₙ. Binding is recorded as a function of time and kinetic rate constants are calculated.

Placental GF = molecular target: T5, Placental GF (UniProt P49763-2 21-149, limits assumed); experiment: Biacore SPR
T5 construct: Bought reagent; also called PlGF; PLGF
T5 sequence (looked up): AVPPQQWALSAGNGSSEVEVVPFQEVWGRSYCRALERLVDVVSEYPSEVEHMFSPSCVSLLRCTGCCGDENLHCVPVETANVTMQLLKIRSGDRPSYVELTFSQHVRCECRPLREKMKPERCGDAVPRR
Description: as §1

HGF = molecular target: T6, HGF (UniProt P14210 32-728); experiment: Biacore SPR
T6 construct: Bought reagent
T6 sequence (P14210 32-728 limits assumed): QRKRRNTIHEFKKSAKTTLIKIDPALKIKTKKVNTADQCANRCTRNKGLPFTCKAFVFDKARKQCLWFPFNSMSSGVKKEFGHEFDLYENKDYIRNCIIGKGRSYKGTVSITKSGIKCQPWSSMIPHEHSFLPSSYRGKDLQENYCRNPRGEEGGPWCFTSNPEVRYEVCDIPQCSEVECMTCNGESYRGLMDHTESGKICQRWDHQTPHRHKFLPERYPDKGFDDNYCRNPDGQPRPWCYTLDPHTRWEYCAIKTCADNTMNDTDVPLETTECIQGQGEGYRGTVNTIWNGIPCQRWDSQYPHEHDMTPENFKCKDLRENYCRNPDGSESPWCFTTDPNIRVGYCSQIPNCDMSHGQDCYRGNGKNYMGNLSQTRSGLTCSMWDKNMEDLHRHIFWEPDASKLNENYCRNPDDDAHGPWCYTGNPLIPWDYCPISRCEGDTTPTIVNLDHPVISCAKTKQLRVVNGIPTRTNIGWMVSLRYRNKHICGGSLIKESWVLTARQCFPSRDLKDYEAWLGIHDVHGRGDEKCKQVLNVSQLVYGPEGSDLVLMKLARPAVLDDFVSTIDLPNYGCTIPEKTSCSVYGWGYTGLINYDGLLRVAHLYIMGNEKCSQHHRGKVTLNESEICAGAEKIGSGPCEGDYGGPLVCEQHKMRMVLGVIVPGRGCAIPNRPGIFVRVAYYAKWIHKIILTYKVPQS
Description: as §1

IGF-2 = molecular target: T7, IGF-2 (UniProt P01344 25-91); experiment: Biacore SPR
T7 construct: Bought reagent
Description: as §1

B1: AB005 (antibody, human IgG1, kappa, V domains shown)
VH: EVQLVQSGGGLVKPGGSLRLSCAASGFTFSSYAMHWVRQAPGKGLEWVAVISYDGSNKYYADSVKGRFTISRDNSKNTLYLQMNSLRAEDTAVYYCARFSGWPNNYYYYGMDVWGQGTTVTVSS
VL: DVVMTQSPLSLPVTPGEPASISCRSSQSLLHSNGFNYVDWYLQKPGQSPHLLIYFGSYRASGVPDRFSGSGSGTDFTLKISRVEAEDVGVYYCMQALQTPPWTFGQGTKVEIRR
In the case of B1, the Kd (MSP Receptor ECD-His tag) is reported as 20.2 nM and 20.1 nM, the koff (MSP Receptor ECD-His tag) is reported as 0.000739 s⁻¹ and the kon (MSP Receptor ECD-His tag) is reported as 36600 M⁻¹ s⁻¹.

B2: DVD512 (bispecific antibody, human IgG1, lambda, L234A L235A)
heavy: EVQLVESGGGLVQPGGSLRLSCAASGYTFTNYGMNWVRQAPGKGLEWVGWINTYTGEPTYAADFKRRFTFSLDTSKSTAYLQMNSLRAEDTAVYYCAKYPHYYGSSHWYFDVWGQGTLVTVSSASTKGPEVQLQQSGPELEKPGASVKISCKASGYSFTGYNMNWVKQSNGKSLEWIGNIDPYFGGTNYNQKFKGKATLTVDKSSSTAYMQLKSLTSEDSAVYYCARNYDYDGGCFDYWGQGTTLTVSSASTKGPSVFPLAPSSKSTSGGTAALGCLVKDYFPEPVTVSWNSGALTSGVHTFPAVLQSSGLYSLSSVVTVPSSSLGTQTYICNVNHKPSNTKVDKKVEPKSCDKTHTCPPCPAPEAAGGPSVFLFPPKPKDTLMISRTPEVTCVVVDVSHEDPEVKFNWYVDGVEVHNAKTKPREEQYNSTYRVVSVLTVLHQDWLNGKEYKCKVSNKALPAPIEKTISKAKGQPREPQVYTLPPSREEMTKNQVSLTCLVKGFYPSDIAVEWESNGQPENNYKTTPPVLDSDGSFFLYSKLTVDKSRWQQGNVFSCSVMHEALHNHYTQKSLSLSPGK
light: DIQMTQSPSSLSASVGDRVTITCSASQDISNYLNWYQQKPGKAPKVLIYFTSSLHSGVPSRFSGSGSGTDFTLTISSLQPEDFATYYCQQYSTVPWTFGQGTKVEIKRTVAAPQAVVTQESALTTSPGETVTLTCRSSTGAVTTSNYANWVQEKPDHLFTGLIGGTNNRAPGVPARFSGSLIGDKAALTITGAQTEDEAIYFCALWYSNHWVFGGGTKLTVLGQPKAAPSVTLFPPSSEELQANKATLVCLISDFYPGAVTVAWKADSSPVKAGVETTTPSKQSNNKYAASSYLSLTPEQWKSHRSYSCQVTHEGSTVEKTVAPTECS
notes: DVD-Ig; HC short, LC short linker; also called DVD512H; DVD512L
In the case of B2, the EC50 [1] is reported as 1.71 nM.

B3: DVD446 (bispecific antibody, human IgG1, kappa)
heavy: not shown
light: DIQMTQSPSSLSASVGDRVTITCRASQVIRRSLAWYQQKPGKAPKLLIYAASNLASGVPSRFSGSGSGTDFTLTISSLQPEDFATYYCQQSNTSPLTFGQGTKVEIKRTVAAPDIVMTQSPDSLAVSLGERATISCRASESVDNYGISFMKWFQQKPGQPPKLLIYAASNQGSGVPDRFSGSGSGTDFTLTISSLQAEDVAVYYCQQSKEVPWTFGGGTKVEIKRTVAAPSVFIFPPSDEQLKSGTASVVCLLNNFYPREAKVQWKVDNALQSGNSQESVTEQDSKDSTYSLSSTLTLSKADYEKHKVYACEVTHQGLSSPVTKSFNRGEC
notes: DVD-Ig; outer AB071 (VEGF), inner AB069 (DLL4); HC short, LC short linker; also called DVD446H; DVD446L
B3 showed an EC50 [1] of 13.9 nM.

B4: DVD516 (bispecific antibody, human IgG1, lambda)
heavy: not shown
light: DIQMTQSPSSLSASVGDRVTITCRASQVIRRSLAWYQQKPGKAPKLLIYAASNLASGVPSRFSGSGSGTDFTLTISSLQPEDFATYYCQQSNTSPLTFGQGTKVEIKRTVAAPQAVVTQESALTTSPGETVTLTCRSSTGAVTTSNYANWVQEKPDHLFTGLIGGTNNRAPGVPARFSGSLIGDKAALTITGAQTEDEAIYFCALWYSNHWVFGGGTKLTVLGQPKAAPSVTLFPPSSEELQANKATLVCLISDFYPGAVTVAWKADSSPVKAGVETTTPSKQSNNKYAASSYLSLTPEQWKSHRSYSCQVTHEGSTVEKTVAPTECS
notes: DVD-Ig; outer AB071 (VEGF), inner AB073 (DLL4); HC short, LC short linker; also called DVD516H; DVD516L
For B4, the EC50 [1] was 4.33 nM.

B5: DVD043 (bispecific antibody, human IgG1, kappa)
heavy: not shown
light: DIQMTQSPSSLSASVGDRVTITCSASQDISNYLNWYQQKPGKAPKVLIYFTSSLHSGVPSRFSGSGSGTDFTLTISSLQPEDFATYYCQQYSTVPWTFGQGTKVEIKRTVAAPDIQMTQSPSSLSASVGDRVTITCRASQDVSTAVAWYQQKPGKAPKLLIYSASFLYSGVPSRFSGSGSGTDFTLTISSLQPEDFATTYYCQQSYTGTVTFGQGTKVEIKRTVAAPSVFIFPPSDEQLKSGTASVVCLLNNFYPREAKVQWKVDNALQSGNSQESVTEQDSKDSTYSLSSTLTLSKADYEKHKVYACEVTHQGLSSPVTKSFNRGEC
For B5, the “% inhibition of HUVEC proliferation at 0.67 nM” value [2] was -22%, the “% inhibition of HUVEC proliferation at 6.7 nM” value [2] was 51% and the “% inhibition of HUVEC proliferation at 67 nM” value [2] was 89%. The “Soluble Flt1 Assay, % of Neutralization @ 9.2 nM Ab” value [3] was 1.1%, the “Soluble Flt1 Assay, % of Neutralization @ 27.7 nM Ab” value [3] was 50.3% and the “Soluble Flt1 Assay, % of Neutralization @ 83.3 nM Ab” value [3] was 57.9%.

B6: DVD043 (bispecific antibody, human IgG1, kappa)
heavy: not shown
light: B5 light
notes: N-terminal VD VEGF, C-terminal VD DLL4; also called DVD043H; DVD043L
For B6, the Kd (DLL ECD His tag) was 2.32 nM, the koff (DLL ECD His tag) was 0.000217 s⁻¹ and the kon (DLL ECD His tag) was 93700 M⁻¹ s⁻¹.

B7: DVD043 (bispecific antibody, human IgG1, kappa)
heavy: not shown
light: B5 light
notes: DVD-Ig; HC short, LC short linker; also called DVD043H; DVD043L
B7 gave an EC50 [1] of 0.67 nM.

B8: AB062 (antibody, human IgG1, kappa, V domains shown)
VH: QVQLQQWGAGLLKPSETLSLTCAVYGGSFSGYYWSWIRQPPGKGLEWIGEINHSGSTNYNPSLKSRVTISVETSKNQFSLKLSSVTAADTAVYYCARDKWTWYFDLWGRGTLVTVSS
VL: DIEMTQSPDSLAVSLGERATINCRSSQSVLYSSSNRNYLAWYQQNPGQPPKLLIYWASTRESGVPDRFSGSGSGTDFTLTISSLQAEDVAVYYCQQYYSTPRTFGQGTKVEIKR
notes: also called AB062VH; AB062VL
Binder B8 has a Kd [4] of 1.36 nM, a koff [4] of 0.000117 s⁻¹ and a kon [4] of 86600 M⁻¹ s⁻¹.

B9: DVD468 (bispecific antibody, human IgG1, kappa)
heavy: not shown
light: DIQMTQSPSSLSASVGDRVTITCRASQVIRRSLAWYQQKPGKAPKLLIYAASNLASGVPSRFSGSGSGTDFTLTISSLQPEDFATYYCQQSNTSPLTFGQGTKVEIKRTVAAPDIQMTQSPSSLSASVGDRVTITCRASQDVSTAVAWYQQKPGKAPKLLIYSASFLYSGVPSRFSGSGSGTDFTLTISSLQPEDFATTYYCQQSYTGTVTFGQGTKVEIKRTVAAPSVFIFPPSDEQLKSGTASVVCLLNNFYPREAKVQWKVDNALQSGNSQESVTEQDSKDSTYSLSSTLTLSKADYEKHKVYACEVTHQGLSSPVTKSFNRGEC
notes: DVD-Ig; outer AB071 (VEGF), inner AB015 (DLL4); HC short, LC short linker; also called DVD468H; DVD468L
Binder B9 has an EC50 [1] of 2.28 nM.

B10: AB047 (antibody, human IgG1, kappa, V domains shown)
VH: QVQLQQSGAELVKPGASVKISCKASGYTFTDYYINWVKLAPGQGLEWIGWIYPGSGNTKYNEKFKGKATLTIDTSSSTAYMQLSSLTSEDTAVYFCVRDSPFFDYWGQGTLLTVSS
VL: DIVLTQSPDSLAVSLGERVTMNCKSSQSLLNSGMRKSFLAWYQQKPGQSPKLLIYWASTRESGVPDRFTGSGSGTDFTLTISSVQAEDVAVYYCKQSYHLFTFGSGTKLEIKR
With B10 the Kd (Placental GF) was 0.0284 nM, the koff (Placental GF) was 0.000108 s⁻¹ and the kon (Placental GF) was 3.8e+06 M⁻¹ s⁻¹.

B11: DVD258 (bispecific antibody, human IgG1, kappa)
heavy: not shown
light: DIVLTQSPDSLAVSLGERVTMNCKSSQSLLNSGMRKSFLAWYQQKPGQSPKLLIYWASTRESGVPDRFTGSGSGTDFTLTISSVQAEDVAVYYCKQSYHLFTFGSGTKLEIKRTVAAPDIQMTQSPSSLSASVGDRVTITCRASQDVSTAVAWYQQKPGKAPKLLIYSASFLYSGVPSRFSGSGSGTDFTLTISSLQPEDFATTYYCQQSYTGTVTFGQGTKVEIKRTVAAPSVFIFPPSDEQLKSGTASVVCLLNNFYPREAKVQWKVDNALQSGNSQESVTEQDSKDSTYSLSSTLTLSKADYEKHKVYACEVTHQGLSSPVTKSFNRGEC
notes: N-terminal VD PlGF, C-terminal VD DLL4; also called VD258H; VD258L
With B11 the Kd (Placental GF) was < 0.254 nM, the koff (Placental GF) was 0.00254 s⁻¹ and the kon (Placental GF) was > 1e+07 M⁻¹ s⁻¹.

B12: AB015 (antibody, human IgG1, kappa)
heavy: not shown
light: DIQMTQSPSSLSASVGDRVTITCRASQDVSTAVAWYQQKPGKAPKLLIYSASFLYSGVPSRFSGSGSGTDFTLTISSLQPEDFATTYYCQQSYTGTVTFGQGTKVEIKRTVAAPSVFIFPPSDEQLKSGTASVVCLLNNFYPREAKVQWKVDNALQSGNSQESVTEQDSKDSTYSLSSTLTLSKADYEKHKVYACEVTHQGLSSPVTKSFNRGEC
Work on B12 yielded a Kd (DLL ECD His tag) of 0.414 nM, a koff (DLL ECD His tag) of 0.000166 s⁻¹ and a kon (DLL ECD His tag) of 400000 M⁻¹ s⁻¹.

B13: DVD033 (bispecific antibody, human IgG1, kappa)
heavy: not shown
light: DVVMTQSPLSLPVTPGEPASISCRSSQSLLHSNGFNYVDWYLQKPGQSPHLLIYFGSYRASGVPDRFSGSGSGTDFTLKISRVEAEDVGVYYCMQALQTPPWTFGQGTKVEIRRTVAAPDIQMTQSPSSVSASVGDRVTITCRASQGISSWLAWYQQKPGKAPNLLIYEASSLQSGVPSRFGGSGSGTDFTLTISSLQPEDFATYYCQQANGFPWTFGQGTKVEIKRTVAAPSVFIFPPSDEQLKSGTASVVCLLNNFYPREAKVQWKVDNALQSGNSQESVTEQDSKDSTYSLSSTLTLSKADYEKHKVYACEVTHQGLSSPVTKSFNRGEC
notes: N-terminal VD RON, C-terminal VD HGF; also called DVD033H; DVD033L
For B13, the Kd (MSP Receptor ECD-His tag) was 7.6 nM, the koff (MSP Receptor ECD-His tag) was 0.00118 s⁻¹ and the kon (MSP Receptor ECD-His tag) was 156000 M⁻¹ s⁻¹. For the same binder, the Kd (HGF) was 0.31 nM, the koff (HGF) was 9.2e-05 s⁻¹ and the kon (HGF) was 297000 M⁻¹ s⁻¹.

B14: AB063 (antibody, human IgG1, kappa, V domains shown)
VH: EVQLVESGGGLVQPGGSLRLSCAASGFTFSIYSMNWVRQAPGKGLEWVSYISSSSSTIYYADSVKGRFTISRDNAKNSLYLQMNSLRDEDTAVYYCARDRGDFDAFDIWGQGTMVTVSS
VL: DIQMTQSPSSLSASVGDRVTITCQASQDITNYLNWYQQKPGKAPKLLIYDASNLETGVPSRFSGSGSGTDFTFTISSLQPEDIATYNCQQCENFPITFGQGTRLEIKR
notes: also called AB063VH; AB063VL
Work on B14 yielded a Kd [4] of 0.15 nM, a koff [4] of 0.000175 s⁻¹ and a kon [4] of 1.17e+06 M⁻¹ s⁻¹.

B15: DVD041 (bispecific antibody, human IgG1, lambda)
heavy: not shown
light: DIQMTQSPSSLSASVGDRVTITCSASQDISNYLNWYQQKPGKAPKVLIYFTSSLHSGVPSRFSGSGSGTDFTLTISSLQPEDFATYYCQQYSTVPWTFGQGTKVEIKRTVAAPQSVLTQPPSVSAAPGQKVTISCSGSSSNIENNHVSWYQQLPGTAPKLLIYDNNKRPSGIPDRFSGSKSGTSATLGITGLQTGDEADYYCETWDTSLSAGRVFGGGTKLTVLGQPKAAPSVTLFPPSSEELQANKATLVCLISDFYPGAVTVAWKADSSPVKAGVETTTPSKQSNNKYAASSYLSLTPEQWKSHRSYSCQVTHEGSTVEKTVAPTECS
notes: N-terminal VD VEGF, C-terminal VD IGF1,2; also called DVD041H; DVD041L
In the case of B15, the Kd (IGF-2) is reported as < 0.0124 nM, the koff (IGF-2) is reported as < 1e-06 s⁻¹ and the kon (IGF-2) is reported as 80900 M⁻¹ s⁻¹.
